Numbering of substitutions follows the chain as printed. Like-named read-outs stand apart in the source and are kept apart here. One block for each binder: values may come before it.
Legend:
human GDF15-his [1] = target: T1, human GDF15-his (human); assay: cell-based or functional assay
T1 chain: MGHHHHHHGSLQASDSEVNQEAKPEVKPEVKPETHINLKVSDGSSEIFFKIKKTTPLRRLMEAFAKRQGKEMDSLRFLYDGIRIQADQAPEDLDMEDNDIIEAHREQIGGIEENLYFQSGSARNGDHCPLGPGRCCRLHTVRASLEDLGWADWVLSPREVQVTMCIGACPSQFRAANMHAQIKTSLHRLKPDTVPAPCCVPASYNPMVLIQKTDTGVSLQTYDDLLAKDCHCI

human GDF15-his [2] = target: T1, human GDF15-his; assay: cell-based or functional assay
human GDF15-his [3] = target: T1, human GDF15-his; assay: cell-based or functional assay
human GDF15-his [4] = target: T1, human GDF15-his; assay: cell-based or functional assay
human GDF15-his [5] = target: T1, human GDF15-his; assay: cell-based or functional assay
human GDF15-his [6] = target: T1, human GDF15-his; assay: ELISA; antibody coated, human GDF15-his titrated, anti-his-HRP detection
Experimental: (§1) ELISA binding assay: The purified monoclonal antibody was subjected to a binding assay with human GDF15-his protein. The binding assay was designed to characterize the binding activity of the anti-GDF15 antibody. Briefly, a 96-well plate was coated with anti-GDF15 antibody (200 ng/well) and incubated for 1 hour at 37° C. The plates were washed with PBST and then blocked for 1 hour at room temperature using 1% BSA. Then 100 µl/well of gradient-diluted human GDF15-his solution (dose range 0-50 μg/ml) was added into plates. After incubation, 100 μl of anti-his tag secondary antibody (anti-his-HRP (1:2000), Bersee, cat #BHR790) was added to each well. Finally, the TMB solution (100 μl/well) was added. 2M H₂SO₄ was used to stop the reaction. The OD450 was measured, and the binding curves were generated by PRISM software to analyze the affinity of candidate antibodies to human GDF15 antigen, and EC₅₀ value were calculated.

human GDF15-hFc [7] = target: T2, human GDF15-hFc (human); assay: competition ELISA as in Example 2; GFRAL-his coated, antibody titrated against human GDF15-hFc
T2 construct: Recombinant hFc-tagged fusion protein expressed in 293F cells
T2 chain: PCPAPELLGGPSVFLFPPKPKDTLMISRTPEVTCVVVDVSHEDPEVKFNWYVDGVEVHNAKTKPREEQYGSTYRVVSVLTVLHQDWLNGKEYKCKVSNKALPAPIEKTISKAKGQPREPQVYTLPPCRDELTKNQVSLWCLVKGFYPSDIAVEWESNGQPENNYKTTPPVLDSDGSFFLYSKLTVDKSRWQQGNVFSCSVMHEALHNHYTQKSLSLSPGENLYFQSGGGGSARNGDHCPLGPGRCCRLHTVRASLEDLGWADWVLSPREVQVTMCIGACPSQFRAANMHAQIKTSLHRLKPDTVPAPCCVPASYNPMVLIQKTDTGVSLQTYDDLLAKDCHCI
Experimental: (§2) The ELISA assay was performed to measure the inhibitory activity of anti-GDF15 antibodies in concentration gradients to block GDF15 binding to GFRAL receptor. IC₅₀ values were used as a measure for neutralizing activity of candidate molecules. Briefly, 96-well plates were coated with 100 ng/well of GFRAL-his protein (SEQ ID NO: 74), and incubated for 1 h at 37° C. The plates were washed with PBST and then blocked for 1 hour at 37° C. with 1% BSA. Gradient-diluted antibodies (dose range 0˜10 μg/ml) was added into each well, immediately followed by equal volume of human GDF15-hFc protein ([…]). After incubation and washing, 100 μl of anti-human IgG secondary antibody (goat anti-human IgG-HRP, Sigma, A8667) was added to each well. Finally, TMB solution (100 μl/well) was added. 2M H₂SO₄ was used to stop the reaction. The OD450 was measured and the binding curve was generated by PRISM to calculate the IC₅₀ value.

human GDF15-hFc [8] = target: T2, human GDF15-hFc; assay: competition ELISA; GFRAL-his coated, antibody titrated against human GDF15-hFc, anti-human IgG-HRP detection
Experimental: as §2

human GDF15-his [9] = target: T1, human GDF15-his; assay: ELISA as in Example 2: plate coated with the antibody, graded human GDF15-his, anti-his-HRP, OD450; the sheet's x axis reads 'Log GDF15 Antibody (nM)'
Experimental: as §1

human GDF15-his [10] = target: T1, human GDF15-his; assay: as above
Experimental: as §1

human GDF15-his [11] = target: T1, human GDF15-his; assay: ELISA as in Example 2: plate coated with the antibody, graded human GDF15-his, anti-his-HRP, OD450; the sheet's x axis reads 'Log GDF15 antibody (nM)'
Experimental: as §1

IC50, 293T-GFRAL/RET-Luc SRE luciferase reporter cells stimulated with human GDF15-his (15 ng/ml) (human GDF15-his [1]): 0.15 nM | IC50 (read off the curve), SRE-luciferase signal in 293T-GFRAL/RET-Luc cells with human GDF15-his (human GDF15-his [2]): ~0.2 nM | IC50 (read off the curve), SRE-luciferase signal in 293T-GFRAL/RET-Luc cells with human GDF15-his (human GDF15-his [3]): ~0.1 nM | IC50 (read off the curve), SRE-luciferase signal in 293T-GFRAL/RET-Luc cells with human GDF15-his (human GDF15-his [4]): ~0.05 nM | IC50 (read off the curve), SRE-luciferase signal in 293T-GFRAL/RET-Luc cells with human GDF15-his (human GDF15-his [5]): ~0.06 nM | EC50 (human GDF15-his [6]): 43.1 nM | IC50 (human GDF15-hFc [7]): 2.49 nM | IC50 (human GDF15-hFc [8]): 1.28 nM | EC50 (read off the curve) (human GDF15-his [9]): ~60 nM | EC50 (read off the curve) (human GDF15-his [10]): ~80 nM | EC50 (read off the curve) (human GDF15-his [11]): ~200 nM
B1: GDF-R37-rabIg1 (antibody, V domains shown)
VH: QQLKESGGRLVTPGTPLTLTCTASGFSLSNYYMSWVRQAPGEGLEWIGMISFSGTTYATWAKGRFTISKTSTTVDLKITSPTTEDTATYFCARVVYAGWTYPLGIWGPGTLVTISS
VL: AVVLTQTAASVSEPVGGTVTIKCQASQSISSVLSWYQQKPGQPPKALIYEASILASGVPSRFKGSGSGTDFTLTISDLECADAATYYCQANYDVYNYGNPFGGGTEVVVK
notes: Full-length rabbit antibody: rabbit IgG1 heavy constant and rabbit light constant; also called GDF15-R37-rabIg1

IC50 (read off the curve), SRE-luciferase signal in 293T-GFRAL/RET-Luc cells with human GDF15-his (human GDF15-his [4]): ~0.06 nM | IC50 (human GDF15-hFc [7]): 1.86 nM | EC50 (read off the curve) (human GDF15-his [10]): ~80 nM
B2: hum_R37-10 (antibody, V domains shown)
VH: EVQLVESGGGLVKPGGSLRLSCAASGFSLSNYYMSWVRQAPGKGLEWIGMISFSGTTYATWAKGRFTISRDDSKNTVYLQINSLKTEDTAVYFCARVVYAGWTYPLGIWGQGTLVTVSS
VL: DIQMTQSPSSLSASVGDRVTITCQASQSISSVLSWYQQKPGKPPKALIYEASILASGVPSRFSGSGSGTDFTLTISSLQPEDFATYYCQANYDVYNYGNPFGGGTKVEIK
notes: Tested in human IgG1 format

IC50 (read off the curve), SRE-luciferase signal in 293T-GFRAL/RET-Luc cells with human GDF15-his (human GDF15-his [5]): ~0.08 nM | IC50 (human GDF15-hFc [7]): 1.33 nM | EC50 (read off the curve) (human GDF15-his [11]): ~200 nM
B3: hum_R37-17 (antibody, V domains shown)
VH: B2 VH with I48V
VL: B2 VL with A46L
notes: Tested in human IgG1 format

IC50 (read off the curve), SRE-luciferase signal in 293T-GFRAL/RET-Luc cells with human GDF15-his (human GDF15-his [4]): ~0.06 nM | IC50 (human GDF15-hFc [7]): 1.76 nM | EC50 (read off the curve) (human GDF15-his [9]): ~60 nM
B4: hum_R37-4 (antibody, V domains shown)
VH: B2 VH
VL: B2 VL with M4L
notes: Tested in human IgG1 format

IC50 (read off the curve), SRE-luciferase signal in 293T-GFRAL/RET-Luc cells with human GDF15-his (human GDF15-his [4]): ~0.06 nM | IC50 (human GDF15-hFc [7]): 1.72 nM | EC50 (read off the curve) (human GDF15-his [9]): ~60 nM
B5: hum_R37-6 (antibody, V domains shown)
VH: B2 VH with I48V, V77L, I81M
VL: B2 VL with M4L
notes: Tested in human IgG1 format

IC50 (read off the curve), SRE-luciferase signal in 293T-GFRAL/RET-Luc cells with human GDF15-his (human GDF15-his [5]): ~0.08 nM | IC50 (human GDF15-hFc [7]): 1.63 nM | EC50 (read off the curve) (human GDF15-his [11]): ~200 nM
B6: hum_R37-16 (antibody, V domains shown)
VH: B2 VH
VL: B2 VL with A46L
notes: Tested in human IgG1 format

IC50 (read off the curve), SRE-luciferase signal in 293T-GFRAL/RET-Luc cells with human GDF15-his (human GDF15-his [5]): ~0.05 nM | IC50 (human GDF15-hFc [7]): 1.83 nM | EC50 (read off the curve) (human GDF15-his [10]): ~80 nM
B7: hum_R37-12 (antibody, V domains shown)
VH: B2 VH with I48V, V77L, I81M
VL: B2 VL
notes: Tested in human IgG1 format

IC50, 293T-GFRAL/RET-Luc SRE luciferase reporter cells stimulated with human GDF15-his (15 ng/ml) (human GDF15-his [1]): 0.18 nM | EC50 (human GDF15-his [6]): 30.9 nM | IC50 (human GDF15-hFc [8]): 0.82 nM
B8: GDF-R54-rabIg1 (antibody, V domains shown)
VH: QQLKESGGRLVTPGTPLTLTCTVSGFSLSSYDMTWVRQVPGKGLEWIGIINNSGNTYYASWAKGRFTISKTSTTVDLKITSPTTEDTATYFCARGILVYADYGDHNLWGPGTLVTVSS
VL: DVVMTQTASPVSAAVGGTVTINCQASEDIYTNLAWFQQKPGQPPKLLIYAASTLASGVPSRFSGSGSGTEFTLTISGLQCDDAATYFCLGVYTYISADGAFGGGTEVVVK
notes: Full-length rabbit antibody: rabbit IgG1 heavy constant and rabbit light constant; also called GDF15-R54-rabIg1

— patent publication US20250326828A1 (STAIDSON BEIJING BIOPHARMACEUTICALS, published 2025)
